For data set [1], the system named is HeLa Kyoto. Description: solubility in G1/S (NP-40 vs SDS abundance) (log2 ratio); higher = more soluble. The conditions noted are these: cell cycle stage: G1/S.
Data set [2] relates to HeLa Kyoto. Briefly: melting temperature (median over replicates), in situ; higher = more thermally stable.
Data set [3] relates to HeLa Kyoto. Description: solubility change mitosis vs G1/S (difference of NP-40 vs SDS log2 ratios) (log2 ratio difference); higher = more soluble in mitosis.
Data set [4] has as its system HeLa Kyoto. Briefly: thermal stability score vs G1/S (z-score of summed log2 fold changes over temperatures); higher = more thermally stable than in G1/S.
Setting [5] is: cell cycle stage: early G1 (4.5 h after nocodazole release).
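Wherever melting temperature (median over replicates), in situ is given: HeLa Kyoto cells synchronized by double thymidine or nocodazole block, proteins quantified by TMT10plex mass spectrometry, three independent biological replicates.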
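Wherever solubility change mitosis vs G1/S (difference of NP-40 vs SDS log2 ratios) is given: synchronized HeLa Kyoto cells (double thymidine block for G1/S, nocodazole release for mitosis), protein amounts in NP-40 versus SDS lysates quantified by mass spectrometry, three biological replicates.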
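Wherever solubility in G1/S (NP-40 vs SDS abundance) is given: HeLa Kyoto cells arrested at G1/S by double thymidine block, proteins quantified by TMT10plex mass spectrometry in mild NP-40 versus SDS extracts, three biological replicates.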
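Wherever thermal stability score vs G1/S (z-score of summed log2 fold changes over temperatures) is given: synchronized HeLa Kyoto cells, proteins quantified by TMT10plex mass spectrometry, three biological replicates, mitosis taken 0.5 h after nocodazole release, G1/S directly after double thymidine block.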

Take “MTVARPSVPAALPLLGELPRLLLLVLLCLPAVWGDCGLPPDVPNAQPALEGRTSFPEDTVITYKCEESFVKIPGEKDSVICLKGSQWSDIEEFCNRSCEVPTRLNSASLKQPYITQNYFPVGTVVEYECRPGYRREPSLSPKLTCLQNLKWSTAVEFCKKKSCPNPGEIRNGQIDVPGGILFGATISFSCNTGYKLFGSTSSFCLISGSSVQWSDPLPECREIYCPAPPQIDNGIIQGERDHYGYRQSVTYACNKGFTMIGEHSIYCTVNNDEGEWSGPPPECRGKSLTSKVPPTVQKPTTVNVPTTEVSPTSQKTTTKTTTPNAQATRSTPVSRTTKHFHETTPNKGSGTTSGTTRLLSGHTCFTLTGLLGTLVTMGLLT [CD55]”: the “solubility in G1/S (log2)” value in the data set on HeLa Kyoto [1] was -0.786. The figures for the melting temperature with HeLa Kyoto [2] (cell cycle stage: G1/S) and with HeLa Kyoto [2] (cell cycle stage: mitosis) were 63.5 °C and 63.9 °C, respectively. Also, in the data set with HeLa Kyoto [3], the “solubility change mitosis (log2)” value is -0.0285. The thermal stability score in the data set with HeLa Kyoto [4] (setting [5]) is -1.88; in the data set on HeLa Kyoto [4] (cell cycle stage: mitosis), -1.77.
Take “MLQTLYDYFWWERLWLPVNLTWADLEDRDGRVYAKASDLYITLPLALLFLIVRYFFELYVATPLAALLNIKEKTRLRAPPNATLEHFYLTSGKQPKQVEVELLSRQSGLSGRQVERWFRRRRNQDRPSLLKKFREASWRFTFYLIAFIAGMAVIVDKPWFYDMKKVWEGYPIQSTIPSQYWYYMIELSFYWSLLFSIASDVKRKDFKEQIIHHVATIILISFSWFANYIRAGTLIMALHDSSDYLLESAKMFNYAGWKNTCNNIFIVFAIVFIITRLVILPFWILHCTLVYPLELYPAFFGYYFFNSMMGVLQLLHIFWAYLILRMAHKFITGKLVEDERSDREETESSEGEEAAAGGGAKSRPLANGHPILNNNHRKND [CERS2]”: the “solubility in G1/S (log2)” value with HeLa Kyoto [1] was 0.0784. The values for the melting temperature with HeLa Kyoto [2] (cell cycle stage: G1/S) and with HeLa Kyoto [2] (cell cycle stage: mitosis) were 52.7 °C and 52.9 °C, respectively. The “solubility change mitosis (log2)” value in the data set with HeLa Kyoto [3] was -0.158. The thermal stability score in the data set on HeLa Kyoto [4] (setting [5]) is -0.502; in the data set on HeLa Kyoto [4] (cell cycle stage: mitosis) it was -0.489.
Take “MLGSLVLRRKALAPRLLLRLLRSPTLRGHGGASGRNVTTGSLGEPQWLRVATGGRPGTSPALFSGRGAATGGRQGGRFDTKCLAAATWGRLPGPEETLPGQDSWNGVPSRAGLGMCALAAALVVHCYSKSPSNKDAALLEAARANNMQEVSRLLSEGADVNAKHRLGWTALMVAAINRNNSVVQVLLAAGADPNLGDDFSSVYKTAKEQGIHSLEDGGQDGASRHITNQWTSALEFRRWLGLPAGVLITREDDFNNRLNNRASFKGCTALHYAVLADDYRTVKELLDGGANPLQRNEMGHTPLDYAREGEVMKLLRTSEAKYQEKQRKREAEERRRFPLEQRLKEHIIGQESAIATVGAAIRRKENGWYDEEHPLVFLFLGSSGIGKTELAKQTAKYMHKDAKKGFIRLDMSEFQERHEVAKFIGSPPGYVGHEEGGQLTKKLKQCPNAVVLFDEVDKAHPDVLTIMLQLFDEGRLTDGKGKTIDCKDAIFIMTSNVASDEIAQHALQLRQEALEMSRNRIAENLGDVQISDKITISKNFKENVIRPILKAHFRRDEFLGRINEIVYFLPFCHSELIQLVNKELNFWAKRAKQRHNITLLWDREVADVLVDGYNVHYGARSIKHEVERRVVNQLAAAYEQDLLPGGCTLRITVEDSDKQLLKSPELPSPQAEKRLPKLRLEIIDKDSKTRRLDIRAPLHPEKVCNTI [CLPB]”: the “solubility in G1/S (log2)” value in the data set on HeLa Kyoto [1] worked out at 0.0358. Moreover, the melting temperature in the data set with HeLa Kyoto [2] (cell cycle stage: G1/S) amounted to 52 °C; in the data set on HeLa Kyoto [2] (cell cycle stage: mitosis) it was 51.8 °C. Moreover, the “solubility change mitosis (log2)” value in the data set on HeLa Kyoto [3] was -0.0294. Moreover, the thermal stability score in the data set with HeLa Kyoto [4] (setting [5]) amounted to 0.555; in the data set with HeLa Kyoto [4] (cell cycle stage: mitosis) it was 0.467.
Consider “MANRGPAYGLSREVQQKIEKQYDADLEQILIQWITTQCRKDVGRPQPGRENFQNWLKDGTVLCELINALYPEGQAPVKKIQASTMAFKQMEQISQFLQAAERYGINTTDIFQTVDLWEGKNMACVQRTLMNLGGLAVARDDGLFSGDPNWFPKKSKENPRNFSDNQLQEGKNVIGLQMGTNRGASQAGMTGYGMPRQIL [TAGLN2]”, for which, in the data set with HeLa Kyoto [1], the “solubility in G1/S (log2)” value was determined as 0.348. Further, the melting temperature with HeLa Kyoto [2] (cell cycle stage: G1/S) was 50.9 °C; in the data set on HeLa Kyoto [2] (cell cycle stage: mitosis) it was 51.7 °C. Besides, the “solubility change mitosis (log2)” value in the data set with HeLa Kyoto [3] turned out to be 0.461. The figures for the thermal stability score in the data set on HeLa Kyoto [4] (setting [5]) and in the data set with HeLa Kyoto [4] (cell cycle stage: mitosis) were -1.52 and -1.77, respectively.
As to “MAGFWVGTAPLVAAGRRGRWPPQQLMLSAALRTLKHVLYYSRQCLMVSRNLGSVGYDPNEKTFDKILVANRGEIACRVIRTCKKMGIKTVAIHSDVDASSVHVKMADEAVCVGPAPTSKSYLNMDAIMEAIKKTRAQAVHPGYGFLSENKEFARCLAAEDVVFIGPDTHAIQAMGDKIESKLLAKKAEVNTIPGFDGVVKDAEEAVRIAREIGYPVMIKASAGGGGKGMRIAWDDEETRDGFRLSSQEAASSFGDDRLLIEKFIDNPRHIEIQVLGDKHGNALWLNERECSIQRRNQKVVEEAPSIFLDAETRRAMGEQAVALARAVKYSSAGTVEFLVDSKKNFYFLEMNTRLQVEHPVTECITGLDLVQEMIRVAKGYPLRHKQADIRINGWAVECRVYAEDPYKSFGLPSIGRLSQYQEPLHLPGVRVDSGIQPGSDISIYYDPMISKLITYGSDRTEALKRMADALDNYVIRGVTHNIALLREVIINSRFVKGDISTKFLSDVYPDGFKGHMLTKSEKNQLLAIASSLFVAFQLRAQHFQENSRMPVIKPDIANWELSVKLHDKVHTVVASNNGSVFSVEVDGSKLNVTSTWNLASPLLSVSVDGTQRTVQCLSREAGGNMSIQFLGTVYKVNILTRLAAELNKFMLEKVTEDTSSVLRSPMPGVVVAVSVKPGDAVAEGQEICVIEAMKMQNSMTAGKTGTVKSVHCQAGDTVGEGDLLVELE [PCCA]”, the “solubility in G1/S (log2)” value in the data set on HeLa Kyoto [1] amounted to 0.0361. Further, the melting temperature was 53.7 °C in the data set with HeLa Kyoto [2] (cell cycle stage: G1/S) and 53.1 °C with HeLa Kyoto [2] (cell cycle stage: mitosis). In addition, the “solubility change mitosis (log2)” value with HeLa Kyoto [3] was -0.122. Also, the thermal stability score is -0.863 in the data set with HeLa Kyoto [4] (setting [5]) and -1.1 in the data set with HeLa Kyoto [4] (cell cycle stage: mitosis).
With “MSRRALRRLRGEQRGQEPLGPGALHFDLRDDDDAEEEGPKRELGVRRPGGAGKEGVRVNNRFELINIDDLEDDPVVNGERSGCALTDAVAPGNKGRGQRGNTESKTDGDDTETVPSEQSHASGKLRKKKKKQKNKKSSTGEASENGLEDIDRILERIEDSTGLNRPGPAPLSSRKHVLYVEHRHLNPDTELKRYFGARAILGEQRPRQRQRVYPKCTWLTTPKSTWPRYSKPGLSMRLLESKKGLSFFAFEHSEEYQQAQHKFLVAVESMEPNNIVVLLQTSPYHVDSLLQLSDACRFQEDQEMARDLVERALYSMECAFHPLFSLTSGACRLDYRRPENRSFYLALYKQMSFLEKRGCPRTALEYCKLILSLEPDEDPLCMLLLIDHLALRARNYEYLIRLFQEWEAHRNLSQLPNFAFSVPLAYFLLSQQTDLPECEQSSARQKASLLIQQALTMFPGVLLPLLESCSVRPDASVSSHRFFGPNAEISQPPALSQLVNLYLGRSHFLWKEPATMSWLEENVHEVLQAVDAGDPAVEACENRRKVLYQRAPRNIHRHVILSEIKEAVAALPPDVTTQSVMGFDPLPPSDTIYSYVRPERLSPISHGNTIALFFRSLLPNYTMEGERPEEGVAGGLNRNQGLNRLMLAVRDMMANFHLNDLEAPHEDDAEGEGEWD [TCF25]”, the “solubility in G1/S (log2)” value with HeLa Kyoto [1] turned out to be 0.0319. In addition, the melting temperature in the data set on HeLa Kyoto [2] (cell cycle stage: G1/S) stood at 49.4 °C; in the data set with HeLa Kyoto [2] (cell cycle stage: mitosis), 48.4 °C. Also, the “solubility change mitosis (log2)” value with HeLa Kyoto [3] worked out at 0.0389. The thermal stability score came out at 0.666 in the data set on HeLa Kyoto [4] (setting [5]) and 0.63 in the data set on HeLa Kyoto [4] (cell cycle stage: mitosis).
On to “MTLEAIRYSRGSLQILDQLLLPKQSRYEAVGSVHQAWEAIRAMKVRGAPAIALVGCLSLAVELQAGAGGPGLAALVAFVRDKLSFLVTARPTAVNMARAARDLADVAAREAEREGATEEAVRERVICCTEDMLEKDLRDNRSIGDLGARHLLERVAPSGGKVTVLTHCNTGALATAGYGTALGVIRSLHSLGRLEHAFCTETRPYNQGARLTAFELVYEQIPATLITDSMVAAAMAHRGVSAVVVGADRVVANGDTANKVGTYQLAIVAKHHGIPFYVAAPSSSCDLRLETGKEIIIEERPGQELTDVNGVRIAAPGIGVWNPAFDVTPHDLITGGIITELGVFAPEELRTALTTTISSRDGTLDGPQM [MRI1]”, for which, in the data set on HeLa Kyoto [1], the “solubility in G1/S (log2)” value came out at 0.21. Besides, the melting temperature with HeLa Kyoto [2] (cell cycle stage: G1/S) came to 52.5 °C; in the data set on HeLa Kyoto [2] (cell cycle stage: mitosis) it was 52.4 °C. For the same sequence, in the data set with HeLa Kyoto [3], the “solubility change mitosis (log2)” value is -0.154. In addition, the results for the thermal stability score in the data set with HeLa Kyoto [4] (setting [5]) and in the data set with HeLa Kyoto [4] (cell cycle stage: mitosis) were -0.841 and -0.966, respectively.
In the case of “MLYLIGLGLGDAKDITVKGLEVVRRCSRVYLEAYTSVLTVGKEALEEFYGRKLVVADREEVEQEADNILKDADISDVAFLVVGDPFGATTHSDLVLRATKLGIPYRVIHNASIMNAVGCCGLQLYKFGETVSIVFWTDTWRPESFFDKVKKNRQNGMHTLCLLDIKVKEQSLENLIKGRKIYEPPRYMSVNQAAQQLLEIVQNQRIRGEEPAVTEETLCVGLARVGADDQKIAAGTLRQMCTVDLGEPLHSLIITGGSIHPMEMEMLSLFSIPENSSESQSINGL [DPH5]”, the “solubility in G1/S (log2)” value with HeLa Kyoto [1] is 0.11. In addition, the values for the melting temperature in the data set on HeLa Kyoto [2] (cell cycle stage: G1/S) and with HeLa Kyoto [2] (cell cycle stage: mitosis) were 54.6 °C and 55.3 °C, respectively. Also, in the data set with HeLa Kyoto [3], the “solubility change mitosis (log2)” value was -0.136. The thermal stability score was 1.75 with HeLa Kyoto [4] (setting [5]) and 1.39 in the data set with HeLa Kyoto [4] (cell cycle stage: mitosis).

The record behind these values is the supplement of paper PMC5998384.
